Source: the DeepSol protein solubility set

Assay: soluble on expression in E. coli; label from the status in PepcDB or PDB records

Sequence | soluble on expression in E. coli
MDIFYKKIKANVTPEVLAQLHSKKIILESTNQQQTKGRYSVVIFDIYGTLTLDNDVLSVSTLKESYQITERPYHYLTTKINEDYHNIQDEQLKSLPFISGYVGTCSFDLVRHEFPKLQSIQLEDHKQHDVRLYMVEQVYVFDHYKDELYIIATNQFSNSTKSDLENRVIKSIEDLTKIQPFMPTQDFDFKTKEIQSNISEERFIEMIQYFKEKITEGDMFQVVPSRIYKYAHHASQHLNQLSFQLYQNLKRQNPSPYMYYLNIDQPYIVGSSPESFVSVKDQIVTTNPIAGTIQRGETTQIDNENMKQLLNDPKECSEHRMLVDLGRNDIHRVSKIGTSKITKLMVIEKYEHVMHIVSEVTGKINQNLSPMTVIANLLPTGTVSGAPKLRAIERIYEQYPHKRGVYSGGVGYINCNHNLDFALAIRTMMIDEQYINVEAGCGVVYDSIPEKELNETKLKAKSLLEVSP | not soluble
MSLTVSNNFKMIYIASCGEGINAFHLVESTLVQFPDSDITVVKVPHIRTESQVDHLLDRVKDVESLIAHTIVEPNLRQYLVTKAEEHKIVTIDLMGQVLNKIETFLSIRPLGKPGLYRETHQVDLKQVTAIDFALAHDDGLRPESLDEAEIILVGLSRAGKTPLSMYMGVMGWKVANIPYVPGVPMPQTLDEVDRRRVIALNINIEQLLSHRKMRQESLGTSDMHAYSRRQEVEVEVQTAQKYYITKGFSMIDVSNKPIETSAEEIAEMITRRFKAQAHEGHHHHHH | not soluble
MNCWMRSPRWPPTTDGSNSSQWVTPCSQMDRSVFSPTPSVPMKLFSTRTLSGTGWAVCKPVGATGVVKGLQRVRLAGLRPAHREDIAIHELVFQRDDDGAIAVCTRRLRLVERLLAKRTDEHRHTGWMGVGHIHRWGAVNECSLAIRMRWLRAPDYVYNTPRCAQLLTSESTKPNGTHGHTMTTFLLATSSVHVTAAAADYLQHRLDSAADHDIVVVAVHDPDAPSRDAGDAVNVARSRLAAFMPATETRDGAPVTEILAAVDEHDPDELLIGPHRGTDDSDGVGSMARDLLTNVDRPVIVLPLP | not soluble
MSLNNRIIYVVSDSVGETAELVVKAALSQFNGSADDTHVRRIPYVEDIGTINEVISLAKADGGIICFTLVVPEIREYLIAEAEKANVLYYDIIGPLIDKMETAYGLTAKYEPGRVRQLDEDYFKKVEAIEFAVKYDDGRDPRGILKADIVLIGVSRTSKTPLSQYLAHKRLKVANVPIVPEVDPPEELFNVDPKKCIGLKISPDKLNHIRKERLKSLGLNDKAIYANINRIKEELEYFEKIVDRIGCQVVDVSNKAVEETANIIHHLKTKNIEGHHHHHH | soluble
MAHHHHHHMRVSPNSLSEAASQLEQDRERDFFRLLYIVDRARRFLSIPVGNVDWRLTCDCLDDMNHRYADTGFLLGFTGGYVLRNRAGRTLLSRFWFSMYLGLVFYDWELRRTTRAPALEYWNSICTVDTEVGRIARVLHTPARFYEAAPMSTAFSGGPPPLPRGSSSSPSPAPHGASVRDWLWRYVSDTMSSVLLMTLCSHLFEGSSWRHRTSDNVEVTALVINSRFFHWKVFESCQVQRNETTEYNISLKWFPSFAASDSLRRSFQCRELILERSTLGGRLWYRTHFSLLRCLGLDSQ | not soluble
MGSDKIHHHHHHMDIRQLKTFIAIAEHGTFAKAADAVGLTPSAVSQQIQALESEVRGELFDRATRPIMLNGHGLQMLEAARTLVRDADNIIDAISGRAVSGTFTIGSVRSSALSLLPLSIVALKADYPDLRIKLQVANTDELLKDVMSGRLDCAMVAEYSGIPSALRWQPFINEPLLVIGPNGTPKMSGFDMLSKLPYVRFNSKFRLAQIIETELAKTRIVPNLIAEIDTIASVVSCVIHGLGVSVVPWIALRDIAAPIVAVQFGEPQILRPIGLLERRSGTRAQIIDRLHQNLARLSDPYGIPR | not soluble
MDTFEKLDKVDLQILRTLQENARLTTKELAARVSLSSTPVFERLKRLESGGYIKKYIAVLDAEKLNQGFVVFCSVKLRRLNRDIAAEFTRIIQDIPEVTECYNISGSYDYLLKIHAPNMKYYQEFILNVLGTIDSLGSLESTFVMAEVKHRYGIHI | soluble
MSSKKNFEVGENVACIYKGKPYDAKITDIKTNSDGKELYCVHFKGWNNRYDEKIPVGEEKDRIFKGTASEYAEKHNAELPTTALKPKKKSLAAEAPRDDRDDTPGTSKGKKAKSVTIAPVMTADDMKVELPKPLRKILIDDYDLVCRYFINIVPHEYSVDQIIEDYIKTIPVSNEQMRTVDDLLIEYEEADIKITNLALICTARGLVDYFNVTLGYQLLYKFERPQYNDLVKKRAMEKGIDITNPTALQDSGFRPSQEYGIVHFLRMLAKLPDYLKLTQWNDHVINRIMIGVHDLIVFLNKNHGKYYRGSSDYQGASNDYYRRSLAADDGVGANQ | not soluble
MPIILEKGQKIDLTKGQPKVAKLQVGLGWDPIGQSGGFLSSLFGSKPNVDCDASVVMLEGDRFLNKNDLVYFGNKLSTCGSIIHSGDNLTGEGAGDDETIFVELHKVPSRINRLVFVVNIYDCVNRRQDFGMIRNAYIRIQNPQTGEELARYNLSDNYAGKTTLIAGEMYRHGSEWKFSAVGEGTQDKNLSEIVSRYQ | not soluble
MSLTARIDQLLLERLKSAGVEPAPAADDGEFLRRAYLDLSGTIPPVAITRDYLADSSPAKRRQLIERLLASPAFASHLASTWREIILKPTDDFQQLQNQFALQAWLREQFSENARYDRIVEQFITASSEQDGPVYFYDALDLKPEQLAAETSRIFLGLHIQCAECHDHPFDDWKQRDFWGYAAFFARVAKRDSAMGRISEGHHHHHH | soluble
MSLEKLMALYNISSPSGKEGKIAGFIIGELRRMGIPFRQDRYGNIYAVKGNRESYPCVVAHMDEVHRRKTGSYAAHLVADSMIVGYDHKRKRMTGIGADDKNGIWICLKCLEDFKAVKCAFFVQEEIGCIGSGHADMSFFSDCRFVIQCDRKGNGDMVTQINGMRLCSNEFISAVDPRKYGYKPAQGLATDVAALKRNGLEVSCVNLSCGYYEPHTDNEYTVLADLCKCYRFVRHIICCHKEGHHHHHH | soluble
MVLVELFGFGPHLMVDGYEANPDRLRDAELIRRVLNELPEEMEMTKVLPPFVYSYGPGGEDGVTGVVIIAESHIAIHTFPKKRFLSVDIFSCKAFDMAKALKKLAEVFEIRRYETYMINRGKEFPKDPELARQIVLGEREYLEARVG | soluble
MAHHHHHHMKFTISTSIEDVLFKGGFRVKEMRLNDFLTVIFGGRSILRANRSVLLRDFFSDPTRYIHDAGVLNEIQATGAYARMEEAVRDEIIFEEDRSKLRDKGVINLLGWSEAAANVKTTVHNNNKNSLDAALEEARNPTTTSTPIYLEGCYESVYNAKWHHLVEVPGGEGTGMDVEEGEPPQS | not soluble
MSSILIIGAGPTGLGAAHRLRGLGLENWHLFESTEQIGGLSASFVDDHGFTWDVGGHVLFSHYDYFDRVVEEALDGAWYEHQRECWVRIRETWVPYPFQNNIRHLPPDALEECLAGLKGLAGSPSLAANFREWMDRVFGAGIVKHFMEPYNRKVWGVPLHEMSREWIGERVSVIDLARIEKNIAEKTDDVNWGPNNTFKFPHKGGTGAIFSSIATRFQDRISFSHELTEVNLAARELGFSNGRRERYDSLITTIPLDIFIGLCRDVPESVREAASRLVHNSGLIVGIGVEGERRDSKCWMYFPEDNCPFYRVTNFHNYSPWNVPNGDTSRFFSLMCETTSSPHKPVNRAEIVETTIQGLINAGMLTESERERIISRYVIDIPYSYPVPTVGRDEALAVINPFLESQGVYSRGRFGAWKYEVGNMDHSFMQGVEVADRILNGADEPTVTGKGGDRLEHHHHHH | not soluble
TTAIASDRLKKRFDRWDFDGNGALERADFEKEAQHIAEAFGKDAGAAEVQTLKNAFGGLFDYLAKEAGVGSDGSLTEEQFIRVTENLIFEQGEASFNRVLGPVVKGIVGMCDKNADGQINADEFAAWLTALGMSKAEAAEAFNQVDTNGNGELSLDELLTAVRDFHFGRLDVELLG | soluble
IHFTTEVITSRIEPANRYVAEKLRITPGQDILYLERLRSIGDEKAMLIENRINIELCPGIVEIDFNQHNLFPTIESLSKRKIRYSESRYAARLIGNERGHFLDISEDAPVLHLEQLVFFSRELPVEFGNVWLKG | not soluble
